In patent publication US10323078B2, “Isolated peptides and fragments thereof from fibrinogen for use as drugs, particularly in skin inflammatory diseases” (Universite Paris Descartes, priority 2015, dated 2019):

System: monocytes and fibroblasts
Assay: TNF-α production by cells stimulated with P. acnes, overall statement
Format: cell-based, human
Details: the 3 bacterial tested strains
Experimental: For experiences of stimulation with P. acnes, cells were incubated with the P. acnes suspension adjusted at the appropriate concentration, pre-treated for 1 h at 37° C. or not with fibrinogen recombinant peptides Fg1 and Fg2 at the concentrations 0.87, 1.75, 3.5 or 7 μM for the desired period of time at 37° C. in 5% CO2.
Human IL-1ß, IL-8, IL-12, hBD-2, and TNF-α protein concentration was measured in the supernatants of stimulated cells using various ELISA Set kits (Ready-Set-Go kit from eBioscience for acne experiments, and for psoriasis experiments the Duo set IL-8 kit from R&D Systems and the BD-2 Human Development (hBD-2) from Peprotech) according to the manufacturer's instructions. We used serial dilutions of recombinant human IL-1ß, IL-8, IL-12 and TNF-α for standard curve. The optical density was determined at 450 nm at a wavelength correction of 540 nm.
To assess the efficacy of Fg1 recombinant peptide, the production of O2^∘− and H2O2 by HaCaT cells NHDK, THP-1, MRC5 and HDF stimulated by pretreated P. acnes strains 6919, RON and PIE was measured. The amount of ROS produced was compared to that produced by the stimulated cells with untreated bacteria. Production baseline was obtained by measuring ROS on unstimulated cells. The production of IL-1ß, IL-8, IL-12 and TNF-α was also measured in all conditions cited above. […]

B1: MKRMVSWSFHKLKTMKHLLLLLLCVFLVKSQGVNDNEEGFFSARGHRPLDKKREEAPSLRPAPPPISGGGYRARPAKAAATQKKVERKAPDAGGCLHADPDLGVLC (protein)
chain: MKRMVSWSFHKLKTMKHLLLLLLCVFLVKSQGVNDNEEGFFSARGHRPLDKKREEAPSLRPAPPPISGGGRARPAKAAATQKKVERKAPDAGGCLHADPDLGVLCMKRMVSWSFHKLKTMKHLLLLLLCVFLVKSQGVNDNEEGFFSARGHRPLDKKREEAPSLRPAPPPISGGGYRARPAKAAATQKKVERKAPDAGGCLHADPDLGVLC
modifications: GST fusion; fragment Fg1
notes: fragment of Bß chain of human fibrinogen having 106 amino acids; recombinant GST-fused peptide expressed in E. coli
With B1 the “Decrease of the production of TNF-α” value was “dose-response effect on the decrease of the production of TNF-α”.
